Test results: patent US20160176928A1 (Bristol-Myers Squibb, published 2016)

Molecular target: T1, Recombinant Human PD-L1-TVMV-His, hPDL1(19-239)-TVMV-His (human, UniProt Q9NZQ7 19-239)
T1 construct: also called PD-L1-His; soluble PD-L1
Assay: HTRF competition of PD-1-Ig binding to PD-L1-His; grade, legend paragraph 524: A=0.10-10 µM
Protocol: Homogenous Time-Resolved Fluorescence (HTRF) Assays of Binding of Soluble PD-1 to Soluble PD-L1. Soluble PD-1 and soluble PD-L1 refers to proteins with carboxyl-end truncations that remove the transmembrane-spanning regions and are fused to heterologous sequences, specifically the Fc portion of the human immunoglobuling G sequence (Ig) or the hexahistidine epitope tag (His). All binding studies were performed in an HTRF assay buffer consisting of dPBS supplemented with 0.1% (w/v) bovine serum albumin and 0.05% (v/v) Tween-20. For the PD-1-Ig/PD-L1-His binding assay, inhibitors were pre-incubated with PD-L1-His (10 nM final) for 15 m in 4 μl of assay buffer, followed by addition of PD-1-Ig (20 nM final) in 1 μl of assay buffer and further incubation for 15m. PD-L1 fusion proteins from either human, cynomologous macaques, mouse, or other species were used. HTRF detection was achieved using europium crypate-labeled anti-Ig monoclonal antibody (1 nM final) and allophycocyanin (APC) labeled anti-His monoclonal antibody (20 nM final). Antibodies were diluted in HTRF detection buffer and 5 μl was dispensed on top of binding reaction. The reaction was allowed to equilibrate for 30 minutes and signal (665 nm/620 nm ratio) was obtained using an EnVision fluorometer. […]

T1 sequence (Q9NZQ7 other isoform, or with tags, fused parts or gaps limits assumed): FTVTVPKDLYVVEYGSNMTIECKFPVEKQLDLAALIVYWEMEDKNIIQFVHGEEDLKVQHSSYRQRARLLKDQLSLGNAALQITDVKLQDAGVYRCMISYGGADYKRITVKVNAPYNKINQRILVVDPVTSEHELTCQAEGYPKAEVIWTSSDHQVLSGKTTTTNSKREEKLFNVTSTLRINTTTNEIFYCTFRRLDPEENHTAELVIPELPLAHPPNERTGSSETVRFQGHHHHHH

B1: Example 1001 (peptide)
peptide: FANPHLXWSWXXRCG
modifications: not fully specified; N-terminal acetyl group (from chloroacetyl capping) joined as a thioether to the side chain of Cys 14 (macrocycle); N-methyl-Ala at 2; X at 7 = residue from 'Fmoc-Cyclopenty-Gly-OH'; X at 11 and 12 = N-methyl-norleucine; C-terminal amide (Rink resin)
notes: the structure itself is only a drawing (CHEM-US-00006)
B1 showed an IC50 of 0.1 to 10 µM.
